Paper PMC7447803, “DEPS-1 is required for piRNA-dependent silencing and PIWI condensate organisation in Caenorhabditis elegans” (Nature Communications, 2020)
Each block holds one molecule with its values, some of them ahead of it.

Experiments:
Assay in all cases: MST; one partner labelled with atto-488 NHS ester at a constant amount, unlabelled partner serially diluted 1:2; 30 mM HEPES pH 7.5, 100 mM K-Ac, 2 mM Mg-Ac, 14 mM BME, 0.01% NP-40; apparent Kd by the law of mass action
[1] = target: N-terminal fragment of DEPS-1 (DEPS-1^frag1) (C. elegans) (UniProt Q9N303)
[2] = target: MBP-tagged full-length DEPS-1 (C. elegans) (UniProt Q9N303)
[3] = target: DEPS-1 PBS motif peptide (C. elegans)
[4] = target: T1, MBP-tagged full-length PRG-1 (C. elegans, UniProt P90786 1-824, Atto-594 label (in the cluster imaging only)); settings: both partners purified
T1 construct: PRG-1, the PIWI protein of C. elegans, full length; Cloned into pMAL-C5X; Unlabelled in the MST titration; also called MBP-PRG-1; MBP-PRG; source: E. coli BL21 (DE3), purified (RNaseA-treated lysate, amylose resin, size-exclusion chromatography)
T1 sequence (looked up): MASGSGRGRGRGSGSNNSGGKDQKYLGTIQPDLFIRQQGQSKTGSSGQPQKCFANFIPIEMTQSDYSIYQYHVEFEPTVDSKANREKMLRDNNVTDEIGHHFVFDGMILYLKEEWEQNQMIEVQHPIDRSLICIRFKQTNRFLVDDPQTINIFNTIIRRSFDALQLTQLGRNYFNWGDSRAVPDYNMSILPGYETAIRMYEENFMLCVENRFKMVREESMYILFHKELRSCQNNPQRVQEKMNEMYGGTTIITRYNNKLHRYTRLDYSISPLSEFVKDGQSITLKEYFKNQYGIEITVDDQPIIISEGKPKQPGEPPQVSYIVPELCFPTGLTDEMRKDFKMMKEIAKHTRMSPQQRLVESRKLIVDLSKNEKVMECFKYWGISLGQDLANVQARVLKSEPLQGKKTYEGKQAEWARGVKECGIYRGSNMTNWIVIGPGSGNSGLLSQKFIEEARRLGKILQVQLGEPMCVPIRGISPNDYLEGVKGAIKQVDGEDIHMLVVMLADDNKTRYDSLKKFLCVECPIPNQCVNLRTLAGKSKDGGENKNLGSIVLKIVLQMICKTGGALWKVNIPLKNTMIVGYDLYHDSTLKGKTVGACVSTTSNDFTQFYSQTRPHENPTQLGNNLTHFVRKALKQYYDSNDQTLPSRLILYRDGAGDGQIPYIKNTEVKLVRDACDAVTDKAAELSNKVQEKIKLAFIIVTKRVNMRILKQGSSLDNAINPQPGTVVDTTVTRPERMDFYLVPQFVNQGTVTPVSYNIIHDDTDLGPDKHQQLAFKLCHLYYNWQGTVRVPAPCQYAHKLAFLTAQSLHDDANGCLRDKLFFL

Kd [1]: 151 nM | Kd [2]: 349 nM | Kd [3]: 1900 nM
Molecule: MBP-tagged PRG-1 PIWI domain (from UniProt P90786 1-824) (domain or fragment)

Kd [4]: 855 ± 133 nM
B1: MBP-tagged full-length DEPS-1 (natural protein, C. elegans, UniProt Q9N303 1-619, looked up)
chain: MSERQSKYFDYQGIVISSTGQDNQDSETDLVYLIQAHGKAAPKNIMYGVSKCAFVPTNLERNFDNIEEAKNLERRSKIPLKFGEVILWNESDCDHDKRIILHIKREKPIYEASSSRNGLILKVGGVIQPTSTTSFWTPLCTVTMPETEATRAEPDVWLYAWIRFETTMKSGLDPFNMTATFESFDSCDPSDQARVCEAPWNAGSPDSKFGVWRPDPKPADSDDEIDIEPREGWHLPEDKWAEVIKMQLGLYVGERLLICKELSQFDFIIPLQKPFSRGTDKTLIYPAVGEYFHFSAIWSMQHNGFLIYELQPVPLLRQHVTSVNGNLLTRVVPASIRGLFVDKEGTLGLIDDPHHLLSFFEFHPAGYEFLKAMAEVRAVRTSENKSVRYRIVRTSGMSIFENWLRDTQFVVGPVKGIRINEDTVICAKHPNVYFKIPNNLKEGIPIGGGVQFVGKRQAGVDSEIMITECSPCPAFTCKNYSVSGDTRLFQVYLKPNCDHEQLAESDSMGFVDFRELETPCRGKFLAWVRESITVNDCRRAATIMEVCSTAICPPLIAMSANSSRATSARTTPAGSSIGSRSSIQSRASAATSVSSNRFVGPSSRRTPSGTPQSSTSSRV
modifications: atto-488 NHS ester label
notes: DEPS-1 (Defective P granules and Sterile-1), C. elegans P granule protein, full length; Cloned into pMAL-C5X; Labelled partner (10 nM) in the MST with MBP-PRG-1; also called MBP-DEPS-1; Defective P granules and Sterile-1; source: E. coli BL21 (DE3), purified (RNaseA-treated lysate, amylose resin, size-exclusion chromatography)
